Paper PMC4678859, “PARN deadenylase is involved in miRNA-dependent degradation of TP53 mRNA in mammalian cells” (Nucleic Acids Research, 2015)

Molecular target: GST-Ago-2 (full-length recombinant Ago-2) (UniProt Q9UKV8 1-859)
Assay: cell-based or functional assay

Sequence of GST-Ago-2 (full-length recombinant Ago-2) (Q9UKV8 whole entry): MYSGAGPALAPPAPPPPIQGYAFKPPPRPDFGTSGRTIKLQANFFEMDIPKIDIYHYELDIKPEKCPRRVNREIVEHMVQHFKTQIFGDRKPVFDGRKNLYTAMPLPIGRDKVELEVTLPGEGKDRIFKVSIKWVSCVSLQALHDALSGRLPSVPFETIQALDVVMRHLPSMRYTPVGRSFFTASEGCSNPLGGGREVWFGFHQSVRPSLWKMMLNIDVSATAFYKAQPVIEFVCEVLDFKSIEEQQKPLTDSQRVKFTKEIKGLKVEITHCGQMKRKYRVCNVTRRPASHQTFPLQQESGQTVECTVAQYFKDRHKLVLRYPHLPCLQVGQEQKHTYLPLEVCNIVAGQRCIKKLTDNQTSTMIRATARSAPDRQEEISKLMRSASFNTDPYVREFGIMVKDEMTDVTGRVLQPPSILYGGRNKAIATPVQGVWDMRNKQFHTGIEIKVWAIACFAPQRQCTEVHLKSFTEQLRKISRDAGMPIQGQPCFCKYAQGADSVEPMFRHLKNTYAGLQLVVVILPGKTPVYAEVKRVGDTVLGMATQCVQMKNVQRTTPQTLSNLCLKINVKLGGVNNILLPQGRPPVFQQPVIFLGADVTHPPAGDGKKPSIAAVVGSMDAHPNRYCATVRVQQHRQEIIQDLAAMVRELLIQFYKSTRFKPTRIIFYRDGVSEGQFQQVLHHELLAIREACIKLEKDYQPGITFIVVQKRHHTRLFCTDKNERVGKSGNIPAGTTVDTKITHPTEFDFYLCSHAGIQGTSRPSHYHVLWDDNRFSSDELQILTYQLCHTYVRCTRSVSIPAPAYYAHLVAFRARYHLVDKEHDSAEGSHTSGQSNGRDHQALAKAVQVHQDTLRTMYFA

B1: His-PARN (full-length recombinant PARN) (enzyme, UniProt O95453 1-639, looked up)
chain: MEIIRSNFKSNLHKVYQAIEEADFFAIDGEFSGISDGPSVSALTNGFDTPEERYQKLKKHSMDFLLFQFGLCTFKYDYTDSKYITKSFNFYVFPKPFNRSSPDVKFVCQSSSIDFLASQGFDFNKVFRNGIPYLNQEEERQLREQYDEKRSQANGAGALSYVSPNTSKCPVTIPEDQKKFIDQVVEKIEDLLQSEENKNLDLEPCTGFQRKLIYQTLSWKYPKGIHVETLETEKKERYIVISKVDEEERKRREQQKHAKEQEELNDAVGFSRVIHAIANSGKLVIGHNMLLDVMHTVHQFYCPLPADLSEFKEMTTCVFPRLLDTKLMASTQPFKDIINNTSLAELEKRLKETPFNPPKVESAEGFPSYDTASEQLHEAGYDAYITGLCFISMANYLGSFLSPPKIHVSARSKLIEPFFNKLFLMRVMDIPYLNLEGPDLQPKRDHVLHVTFPKEWKTSDLYQLFSAFGNIQISWIDDTSAFVSLSQPEQVKIAVNTSKYAESYRIQTYAEYMGRKQEEKQIKRKWTEDSWKEADSKRLNPQCIPYTLQNHYYRNNSFTAPSTVGKRNLSPSQEEAGLEDGVSGEISDTELEQTDSCAEPLSEGRKKAKKLKRMKKELSPAGSISKNSPATLFEVPDTW
- in vitro reconstituted deadenylation of radiolabeled L3(A30) RNA substrate, limiting amounts of His-PARN and increasing amounts of GST-Ago-2: 2.4 fold
